Assay results from US20200231652A1.
Read-outs that look alike come from different tables or passages of the source.

Key:
[1] = biological target: TGF-β1 (UniProt P01137); experiment: cell-based or functional assay
[2] = biological target: TGF-β3 (UniProt P10600); experiment: cell-based or functional assay
[3] = biological target: TGF-β1 (UniProt P01137)
[4] = biological target: TGF-β1 (UniProt P01137); remark: listed apart in the source

T22d35, sequence (P37173 other isoform, or with tags, fused parts or gaps limits assumed): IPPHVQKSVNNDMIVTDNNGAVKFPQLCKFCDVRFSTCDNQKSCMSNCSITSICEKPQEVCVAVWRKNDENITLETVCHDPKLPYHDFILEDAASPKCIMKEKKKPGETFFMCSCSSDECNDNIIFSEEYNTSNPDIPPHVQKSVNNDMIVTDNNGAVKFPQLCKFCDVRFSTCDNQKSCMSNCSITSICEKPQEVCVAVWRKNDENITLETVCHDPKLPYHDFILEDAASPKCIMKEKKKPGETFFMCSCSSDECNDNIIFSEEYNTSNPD
TGF-β1, sequence (P01137 279-390 limits assumed): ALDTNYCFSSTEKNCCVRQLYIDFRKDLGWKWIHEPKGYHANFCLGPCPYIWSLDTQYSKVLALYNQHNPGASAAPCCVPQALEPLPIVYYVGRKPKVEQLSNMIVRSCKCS
TGF-β3, sequence (P10600 301-412 limits assumed): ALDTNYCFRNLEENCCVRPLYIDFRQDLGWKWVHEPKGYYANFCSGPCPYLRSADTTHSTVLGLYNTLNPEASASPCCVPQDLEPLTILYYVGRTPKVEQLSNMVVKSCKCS

| Substance | Av IC50, TGF-β neutralization, Mv1Lu cell luciferase reporter assay [1] | Av IC50, TGF-β neutralization, Mv1Lu cell luciferase reporter assay [2] | Fold Change Fc-T2m, A549 cell IL-11 release assay [table] [3] | Fold Change T22d35, A549 cell IL-11 release assay [table] [3] | IC50, A549 cell IL-11 release assay [table] [3] | IC50, A549 cell IL-11 release assay [table] [4] | IC50, A549 cell IL-11 release assay [1] | IC50, A549 cell IL-11 release assay (second set, FIG. 4C) [1] |
| --- | --- | --- | --- | --- | --- | --- | --- | --- |
| T2-hIgG1Fc fusion from R&D | 0.506 nM | 0.323 nM |  |  |  |  |  |  |
| T22d35 (from UniProt P37173 24-222) (receptor) | 1.23 nM | 0.033 nM | 0.1 fold | 1 fold | 0.58 nM | 0.526 nM | 0.5 nM | 0.5 nM |
